PMC7786285 (Frontiers in Immunology, 2020)
Values belong to the binder of their own block, whether it stands above or below them.

Molecular target: T1, EGFR-ECD-Fc chimera (Homo sapiens, UniProt P00533)
T1 construct: extracellular domain of the epidermal growth factor receptor, as Fc chimera; No catalogue number printed; detected through its Fc with a goat anti-human IgG Fc PE antibody; also called EGFR-Fc chimera; EGFR-Fc; source: bought: R&D
Assay: flow cytometry on cells; yeast cells displaying chimeric Fabs stained with EGFR-ECD-Fc chimera (100, 10 and 1 nM; sorting 250 nM down to 1 nM), detected with goat anti-human IgG Fc PE
Conditions: one partner purified

binding result: binds
B1: FEB4 VH paired with the VL of H1, Fab displayed on yeast (Fab, V domains shown)
VH: AVTLDESGGGLQTPGGALSLVCKASGFTFSSHGMLWVRQAPGKGLEFVAGISTDGSSTSYGAPVKGRATISRDNGQSTVRLQLNNLRAEDTGTYYCAKDAYRCRNCAEDIDAWGHGTEVIVSS
VL: ALTQPSSVSANPGETVKITCSGGYSYYGWIQQKSPGSAPVTLIYNNDNRPSGIPSRFSGSTSGSTSTLTITGVQAEDEAVYYCGSYDGSAGIFGAGTTLTVL

binding result: binds
B2: FEB4 VH paired with the VL of H3, Fab displayed on yeast (Fab, V domains shown)
VH: B1 VH
VL: ALTQPSSVSANPGETVEITCSGGGSNSYYGWYQQKAPGSAPVTVIYDNTNRPSNIPSRFSGSLSDSTNTLTITGVQADDEAVYFCGNEDNTDSYVGIFGAGTTLTVL
